System: PPIs identified as affected by the SH3 domain deletions
Assay: Liquid DHFR-PCA low-throughput validation of PPIs affected by SH3 deletion (Fig. S1D-E)
Type: cell-based, Saccharomyces cerevisiae
Conditions: label = prey, liquid DHFR-PCA, prey _1 = lost, _2 = gained in screen
How it was run: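 Growth at 30 °C was tracked by OD each 15 min over 72 h in agar-free PCA selection medium, starting at 0.1 OD. Cells were diploids selected after mating, first cultured 48 h with NAT and HPH in synthetic complete MSG medium, pH 6.0.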

B1: YNL229C_1 (protein, UniProt P23202 2-354, looked up)
Transcriptional regulator URE2: MNNNGNQVSNLSNALRQVNIGNRNSNTTTDQSNINFEFSTGVNNNNNNNSSSNNNNVQNNNSGRNGSQNNDNENNIKNTLEQHRQQQQAFSDMSHVEYSRITKFFQEQPLEGYTLFSHRSAPNGFKVAIVLSELGFHYNTIFLDFNLGEHRAPEFVSVNPNARVPALIDHGMDNLSIWESGAILLHLVNKYYKETGNPLLWSDDLADQSQINAWLFFQTSGHAPMIGQALHFRYFHSQKIASAVERYTDEVRRVYGVVEMALAERREALVMELDTENAAAYSAGTTPMSQSRFFDYPVWLVGDKLTIADLAFVPWNNVVDRIGINIKIEFPEVYKWTKHMMRRPAVIKALRGE
Ratio (Deletedscore / WTscore) (bait LSB1): 1.043

B2: YNL084C_1 (protein, UniProt P39013 1-349, looked up)
Actin cytoskeleton-regulatory …: MPKLEQFEIKKYWQIFSGLKPIENKVNHDQVLPILYNSKLDSSVLNKIWFLADIDDDDNLDFEEFVICMRLIFDMVNKNISSVPDELPDWLIPGSKVNLIKERKKRKQIENADLPPKKEIKVDWYMSPDDLNQYEKIYNSCAKLTDGTITFNELSTKLSTKFFNISKTDLNKVWSLINPQNLPSIDRDPTFYFIHCLRQRNDLGAEIPASLPNSLAEVCNKKQLSYDLRSSQPPTKRKEEANEVDNLRDNGQNSSSDSSGSNVLSNEDSIKQKYASLTDDQVANMREQLEGLLNYKKSEKTQGGSKLSKRINIRSITDDLDNIEQQVEVLENYLNNKRHELQALQAEIN
Ratio (Deletedscore / WTscore) (bait LSB1): 0.7759 | Ratio (Deletedscore / WTscore) (bait LSB3): 0.8689 | Ratio (Deletedscore / WTscore) (bait MYO3): 0.5035 | Ratio (Deletedscore / WTscore) (bait MYO5): 0.7027

B3: YLR144C_1 (protein, UniProt Q12168 1-779, looked up)
Glucan …: MCYSRQAIPPPVPNRPGGTTNRGPPPLPPRANVQPPVCSSENSSKPRENRVAGESLRTPSSSNPLADSQVNSDNIFQSPVLSNLKAPPSVFNKVQHPVPKPNIDDQSVDPLETNKFYTNMLLDDNTQPIWTHPYSIWFSRDPELFGLAANHTLASQRVFDTTTNPPRFYFNPTNIKSFVFKAREFVSSNDIKLEFRDMKHMSMCLLMSLSSSQFIEFPLVQGMGFVTAIYHDLGFELRSAVGFRSLERISVNERYGKYNIQLENNRNWILYLTSPDYSFPQDFQISLLDSNTIISSHKINGLICQLSADSVPSIDMAAGCYPVYCDLSGQTVDEHFTNYRFNYTVAGYSQSGTTLMYALPHHKAAFTPEMQEREIASSLDSTVKGLMTGYLTNSFDMQVQVPQELGFEPVALSLNKKADYSQEKLSKIREAAVQEVQLSDPQQESNIDSMYFSGKILAKYAWILYVTHYILHDENLTKELLSKLTIAMERFISNQQVLPLNYDVSWKGIISSGSSSQDFGNSYYNDHHFHYSYHVITAAIISLVDSDLSGVTNNSWLENNRDWVECLIRDYSGVDNDDPYFPQFRSFDWFNGHSWAKGLFPSGDGKDEESTSEDVNSCYAIKLWGLVTGNSKLTDIANLQLGIMRNVFQSYFLYESNNTVQPKEFIGNKVSGILFENKIDHATYFGMEPQYIHMIHAIPITSASSWVRTPNFVKEEWEEKMQPIIDQVNDGWKGIIMLNMALLDPKFSYDFFSQPDFNRNFLDNGQSLTWSLAYSGAFS
Ratio (Deletedscore / WTscore) (bait LSB1): 1.001 | Ratio (Deletedscore / WTscore) (bait LSB3): 0.9902 | Ratio (Deletedscore / WTscore) (bait PIN3): 0.9919

B4: YIL095W_1 (protein, UniProt P40494 1-810, looked up)
Actin-regulating kinase PRK1: MNTPQISLYEPGTILTVGSHHAKIIKYLTSGGFAQVYTAEISPPDPYSNANIACLKRVIVPHKQGLNTLRAEVDAMKLLRNNKHVVSYIDSHAARSVNGIAYEVFVLMEFCERGGLIDFMNTRLQNRLQESEILEIMSQTVQGITAMHALQPPLIHRDIKIENVLISHDGLYKVCDFGSVSGVIRPPRNTQEFNYVQHDILTNTTAQYRSPEMIDLYRGLPIDEKSDIWALGVFLYKICYYTTPFEKSGEAGILHARYQYPSFPQYSDRLKNLIRLMLMEAPSQRPNICQVLEEVSRLQNKPCPIRNFYLLRAMNQNANTQLAGEPSSTTYVPTQKFIPVQSLQSINQPPNMMPVTHVSTTPNLGTFPISINDNNKTEVTAHAGLQVGSHSNLTSPLMKTKSVPLSDEFASLYYKELHPFQKSQTFKSVESFQSPQRKSMPPLSLTPVNNDIFDRVSAINRPNNYVDSETQTIDNMAVPNLKLSPTITSKSLSSTKEIAAPDNINGSKIVRSLSSKLKKVITGESRGNSPIKSRQNTGDSIRSAFGKLRHGFTGNSVNNSRSASFDNNNVNGNGNNTNRRLVSSSTSSFPKFNSDTKRKEESDKNQRLEKRRSMPPSILSDFDQHERNNSRTGSRDYYRSHSPVKKTQASAKTTSKPTLIPDNGNVNINQEKKESIQRRVHNLLKSSDDPVTYKSASGYGKYTDIGTETSNRHSSVRITPITEEKFKKTLKDGVLDIKTKSNGKDKSRPPRPPPKPLHLRTEIQKIRNFSRLQSKKLPIERISSEATETIVDVNVDDLEADFRKRFPSKV
Ratio (Deletedscore / WTscore) (bait LSB3): 0.5323

B5: YJL201W_1 (protein, UniProt P32525 1-599, looked up)
Protein ECM25: MIDINVNNIFFRSYSVDPNSGHAIYVFDSTYLPASDEIGDKQVYDLLINALMDRLVMKLPQAPYSLVIFSSGFSQRKISWVYGIKMFAKLPKETKFYLQKIFIVHESFFVRSVYQVISNAMNFNFLDSKDSQHDFPSLVHVLDLTSLSELIDITRLRISLNVYLYDYQIREHINVPEEYYNRLTPLAIRQYRQLVFDKIFKKLQNDALLCELIFQKPGNYKKVNIFLDIIKRNNYIDLSQWDIYSLASVWLNYFIKNKAKPLIPIELIPLPIVDDLKFTSETFRKIIKFNQYQDLFMVIIPFFNRIIAHGESTKHDSRTLSKALTPALCKEKLSMMTNDRLAIGSRYIKNLLDFFPEIAKEISSPPSSVSSSSTIPVLPKPRKSSPTRYSELGCLTLPRSRSPSPQRSVTSPTYTPVALQNTPVLKPKSSSRNVSSPSFNAKPPLPIKAVTRPQLSLTSNSNTDLALASSSTDTLSSPTKTPSADSLPLSNSSTDLTISDNIKEMVKDEPAKDKNSVETDIFVQQFESLTLVQNAKIKKFDKELQEKKKKNETTSKTADKFSQKGYSDIKASNKVSRLAALYEERLQGLQVMNEMKQRW
Ratio (Deletedscore / WTscore) (bait LSB3): 0.8948

B6: YML016C_2 (protein, UniProt P26570 2-692, looked up)
Serine/threonine-protein …: GNSSSKSSKKDSHSNSSSRNPRPQVSRTETSHSVKSAKSNKSSRSRRSLPSSSTTNTNSNVPDPSTPSKPNLEVNHQRHSSHTNRYHFPSSSHSHSNSQNELLTTPSSSSTKRPSTSRRSSYNTKAAADLPPSMIQMEPKSPILKTNNSSTHVSKHKSSYSSTYYENALTDDDNDDKDNDISHTKRFSRSSNSRPSSIRSGSVSRRKSDVTHEEPNNGSYSSNNQENYLVQALTRSNSHASSLHSRKSSFGSDGNTAYSTPLNSPGLSKLTDHSGEYFTSNSTSSLNHHSSRDIYPSKHISNDDDIENSSQLSNIHASMENVNDKNNNITDSKKDPNEEFNDIMQSSGNKNAPKKFKKPIDIDETIQKLLDAGYAAKRTKNVCLKNNEILQICIKAREIFLSQPSLLELSPPVKIVGDVHGQYGDLLRLFTKCGFPPSSNYLFLGDYVDRGKQSLETILLLFCYKIKYPENFFLLRGNHECANVTRVYGFYDECKRRCNIKIWKTFIDTFNTLPLAAIVAGKIFCVHGGLSPVLNSMDEIRHVVRPTDVPDFGLINDLLWSDPTDSPNEWEDNERGVSYCYNKVAINKFLNKFGFDLVCRAHMVVEDGYEFFNDRSLVTVFSAPNYCGEFDNWGAVMSVSEGLLCSFELLDPLDSAALKQVMKKGRQERKLANQQQQMMETSITNDNESQQ
Ratio (Deletedscore / WTscore) (bait ABP1): 1.259 | Ratio (Deletedscore / WTscore) (bait BOI1): 1.203 | Ratio (Deletedscore / WTscore) (bait BZZ1-2): 1.516

B7: YLR166C_1 (protein, UniProt Q06245 1-871, looked up)
Exocyst complex component …: MNSLYELDPKWKKLLKTDNFLGGLTVNEFVQELSKDHRNDVLIDANTKNLPTNEKDQDAIREAIWKQLDPKPYIRTFESTLKELKNLNEETLNKRQYFSEQVATQEVIHSENVIKLSKDLHTTLLTFDKLDDRLTNVTQVVSPLGDKLETAIKKKQNYIQSVELIRRYNDFYSMGKSDIVEQLRLSKNWKLNLKSVKLMKNLLILSSKLETSSIPKTINTKLVIEKYSEMMENELLENFNSAYRENNFTKLNEIAIILNNFNGGVNVIQSFINQHDYFIDTKQIDLENEFENVFIKNVKFKEQLIDFENHSVIIETSMQNLINDVETVIKNESKIVKRVFEEKATHVIQLFIQRVFAQKIEPRFEVLLRNSLSISNLAYVRILHGLFTLFGKFTKSLIDYFQLLEIDDSNQILSTTLEQCFADLFSHYLYDRSKYFGIEKRSLEAILVDMTSKFTVNYDKEINKRVLLDKYKEKLSTNVDAFMHSPRGNTHSRQDSTSRSKLSQFNSFLKTHLDKDHLSLNRTNTLSDSFNNSSSSTQYDVANNSSSLVNSSFTASDIDNSPNSPANYSLNDVDSMLKCVVESTARVMELIPNKAHLYILEILKIMFLGIVDSYMEIALEVAYWKICKVDINKTAGVVNLNFLKFISMSTEILDLLSISIKSIFLPLLNNSPEIKAQIIEMTNSQIQKMEILINIILQETITVISTKFSAILCKQKKKDFVPKSQELLDQDTLPAIEIVNILNLIFEQSSKFLKGKNLQTFLTLIGEELYGLLLSHYSHFQVNSIGGVVVTKDIIGYQTAIEDWGVASLIDKFATLRELANLFTVQPELLESLTKEGHLADIGRDIIQSYISNREDFNHDNFINSVKLNFR
Ratio (Deletedscore / WTscore) (bait LSB3): 0.4618

— paper PMC7954794, “Protein context shapes the specificity of SH3 domain-mediated interactions in vivo” (Nature Communications, 2021)
